Square brackets hold non-standard residues; d marks the D form. Ends that are not written are not given here. KΨPR = pseudopeptide unit Lys-Ψ(CH2-N)-Pro-Arg; Aib = CC(C)(N)C(=O)O
Target: surface nucleolin on human cells (human, UniProt P19338 2-710)
Experiment: cell-based or functional assay

Chain of surface nucleolin on human cells (P19338 2-710): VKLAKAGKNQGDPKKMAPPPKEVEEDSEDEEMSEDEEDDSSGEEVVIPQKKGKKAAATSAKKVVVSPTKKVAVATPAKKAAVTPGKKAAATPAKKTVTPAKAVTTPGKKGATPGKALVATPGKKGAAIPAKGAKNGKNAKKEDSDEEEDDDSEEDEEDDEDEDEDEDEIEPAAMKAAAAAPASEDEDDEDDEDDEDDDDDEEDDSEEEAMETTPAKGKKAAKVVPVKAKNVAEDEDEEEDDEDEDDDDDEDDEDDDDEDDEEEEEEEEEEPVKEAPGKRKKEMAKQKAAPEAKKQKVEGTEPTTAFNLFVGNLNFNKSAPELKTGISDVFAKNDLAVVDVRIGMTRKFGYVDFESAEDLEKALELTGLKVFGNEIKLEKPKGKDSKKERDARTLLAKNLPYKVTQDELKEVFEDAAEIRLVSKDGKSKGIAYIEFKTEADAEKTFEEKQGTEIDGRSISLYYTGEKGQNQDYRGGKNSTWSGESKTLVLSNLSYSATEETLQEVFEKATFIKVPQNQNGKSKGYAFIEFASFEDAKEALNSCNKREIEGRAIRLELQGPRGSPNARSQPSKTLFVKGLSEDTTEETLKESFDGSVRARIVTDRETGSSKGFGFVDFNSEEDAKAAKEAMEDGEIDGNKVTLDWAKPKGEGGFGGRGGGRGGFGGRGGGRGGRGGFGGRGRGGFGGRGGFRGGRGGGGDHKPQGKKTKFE

- ID50 (Inhibitory Dose at 50%) of surface nucleolin activity in HeLa P4 cells: < 100 nM
B1: hexavalent compound Nucant 6 (peptide)
chain: Ac-K(KΨPR)[Aib]GK(KΨPR)[Aib]GK(KΨPR)[Aib]GK(KΨPR)[Aib]GK(KΨPR)[Aib]GK(KΨPR)[Aib]G-NH2
peptide: Lys-Pro-Arg
modifications: also: chain 2 is the KΨPR unit, one copy bound via its C-terminus as amide on the ε-amine of each of the 6 Lys of chain 1, reduced bond Ψ(CH2-N) between K and P of chain 2
